The values that follow come from article PMC7329128.

Holding throughout (assay): flow cytometry on cells
Assay [1] has as its target soluble HCMV glycoprotein trimer gH/gL/gO-sfGFP, strain TB40/E. Particulars: 1/3 dilution of medium containing gH/gL/gO-sfGFP, read off a plot.
Assay [2] deals with membrane-anchored HCMV trimer (full-length gH, gL-FLAG, gO-8his), strain TB40/E, on Expi293F cells. Particulars: fitted curve read at 100 nM soluble PDGFR-Fc (right end of the x axis); parent: est. 1.2; read off a plot.
For assay [3], the target named is membrane-anchored HCMV trimer (full-length gH, gL-FLAG, gO-8his), strain Merlin, on Expi293F cells, Q6SW67;F5HCH8. Particulars: read at 100 nM soluble PDGFR-Fc (highest concentration); parent: est. 0.98; read off a plot.
[4] abbreviates: + 100 nM PDGF competitor, parent: est. 0.33.
Where [5] appears, read: w/o competitor, parent: est. 1.0.

For the substance “myc-tagged human PDGFRα (wild type) on Expi293F cells (from UniProt P16234-1) L137K”, the values for the ratio to parent in assay [1] (setting [4]) and in assay [1] (setting [5]) were 0.85 and 0.82, respectively.

Consider “myc-tagged human PDGFRα (wild type) on Expi293F cells (from UniProt P16234-1) L137Q”, for which the results for the ratio to parent in assay [1] (setting [4]) and in assay [1] (setting [5]) were 0.71 and 0.9, respectively.

Regarding “myc-tagged human PDGFRα (wild type) on Expi293F cells (from UniProt P16234-1) V242K”, the ratio to parent in assay [1] (setting [4]) worked out at 0.94; in assay [1] (setting [5]) it was 0.9.

Regarding “myc-tagged human PDGFRα (wild type) on Expi293F cells (from UniProt P16234-1) V242T”, the ratio to parent was 0.84 in assay [1] (setting [4]) and 0.83 in assay [1] (setting [5]).

For “myc-tagged human PDGFRα (wild type) on Expi293F cells (from UniProt P16234-1) Y206S”, the ratio to parent in assay [1] (setting [4]) is 0.82; in assay [1] (setting [5]), 0.85.

For “soluble PDGFRα-Fc (wild type, redesigned fusion to human IgG1 Fc) (from UniProt P16234-1) V242K”, the ratio to parent in assay [2] came to 1.1; in assay [3] it was 1.

Take “soluble PDGFRα-Fc (wild type, redesigned fusion to human IgG1 Fc) (from UniProt P16234-1) Y206S”: the ratio to parent in assay [2] stood at 0.76; in assay [3] it was 0.45.
